Laboratory results: paper PMC420458 (BMC Cell Biology, 2004)
Values belong to the binder of their own block, whether it stands above or below them.

How the values were obtained:
[1] = molecular target: T1, GST-HEF1 (human, UniProt Q14511 1-834); experiment: pull-down
T1 sequence: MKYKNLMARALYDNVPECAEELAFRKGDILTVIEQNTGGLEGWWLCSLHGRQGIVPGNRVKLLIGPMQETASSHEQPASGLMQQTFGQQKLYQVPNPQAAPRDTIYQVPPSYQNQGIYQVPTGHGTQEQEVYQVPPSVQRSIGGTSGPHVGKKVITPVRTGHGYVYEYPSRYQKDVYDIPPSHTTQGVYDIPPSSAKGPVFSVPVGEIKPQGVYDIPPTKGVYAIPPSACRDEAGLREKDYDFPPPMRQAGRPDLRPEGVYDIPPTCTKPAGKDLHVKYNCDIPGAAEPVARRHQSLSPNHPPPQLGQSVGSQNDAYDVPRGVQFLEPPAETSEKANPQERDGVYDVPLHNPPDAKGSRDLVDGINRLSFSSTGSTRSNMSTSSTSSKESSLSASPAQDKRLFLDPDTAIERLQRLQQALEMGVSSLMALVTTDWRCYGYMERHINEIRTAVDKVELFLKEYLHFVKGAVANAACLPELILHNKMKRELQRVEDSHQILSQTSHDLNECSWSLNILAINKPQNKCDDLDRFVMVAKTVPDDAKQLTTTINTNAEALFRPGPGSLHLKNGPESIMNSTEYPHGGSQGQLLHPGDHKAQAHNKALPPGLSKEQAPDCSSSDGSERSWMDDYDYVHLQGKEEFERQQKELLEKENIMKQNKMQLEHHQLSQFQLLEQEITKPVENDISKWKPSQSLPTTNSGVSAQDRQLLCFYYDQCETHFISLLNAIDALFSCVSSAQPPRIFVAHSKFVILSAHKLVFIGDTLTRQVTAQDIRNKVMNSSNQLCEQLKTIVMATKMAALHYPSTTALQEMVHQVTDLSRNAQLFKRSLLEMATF

[2] = molecular target: GST-APC10 (UniProt Q9UM13 1-185); experiment: pull-down
GST-APC10, sequence (Q9UM13 whole entry): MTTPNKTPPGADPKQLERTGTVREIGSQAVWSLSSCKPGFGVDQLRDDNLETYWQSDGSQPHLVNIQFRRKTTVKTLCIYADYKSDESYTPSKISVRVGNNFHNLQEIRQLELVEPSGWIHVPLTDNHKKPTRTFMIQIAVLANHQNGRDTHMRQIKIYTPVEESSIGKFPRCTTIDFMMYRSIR

B1: Flag-tagged Smad3 d2 (domain or fragment)
chain: MSSILPFTPPIVKRLLGWKKGEQNGQEEKWCEKAVKSLVKKLKKTGQLDELEKAITTQNVNTKCITIPRSLDGRLQVSHRKGLPHVIYCRLWRWPDLHSHHELRAMELCEFAFNMKKDEVCVNPYHYQRVETPVLPPVLVPRHTEIPAEFPPLDDYSHSIPENTNFPAGIEPQSNIPETPPPGYLSEDGETSDHQMNHSMDAGSPNLSPNPMSPAHNNLDLQPVTYCEPAFWCSISYYELNQRVGETFHASQPSMTVDGFTDPSNSERFCLGLLSNVNRNAAVELTRRHIGRGVRLYYIGGEVFAECLSDSAIFVQSPNCNQRYGWHPATVCKIPPGCNLKIFNNQEFAALLAQSVNQGFE
percent of input protein bound (densitometry) [1]: 21%
percent of input protein bound (densitometry) [2]: 95%

B3: Flag-tagged Smad3 d4 (domain or fragment)
chain: MSSILPFTPPIVKRLLGWKKGEQNGQEEKWCEKAVKSLVKKLKKTGQLDELEKAITTQNVNTKCITIPRSLDGRLQVSHRKGLPHVIYCRLWRWPDLHSHHELRAMELCEFAFNMKKDEVCVNPYHYQRVETPVLPPVLVPRHTEIPAEFPPLDDYSHSIPENTNFPAGIEPQSNIPETPPPGYLSEDGETSDHQMNHSMDAGSPNLSPNPMSPAHNNLDLQPVTYCEPAFWCSISYYELNQRVGETFHASQPSMTVDGFTDPSNSERFCLGLLSNVNRNAAVELTRRHIGRGVRLYYIG
percent of input protein bound (densitometry) [1]: 13%
percent of input protein bound (densitometry) [2]: 17%

Other lines, results leading:

percent of input protein bound (densitometry) [1]: 24%
percent of input protein bound (densitometry) [2]: 20%
B2: Smad3/Smad1/Smad3 chimera (other)
chain: MSSILPFTPPIVKRLLGWKKGEQNGQEEKWCEKAVKSLVKKLKKTGQLDELEKAITTQNVNTKCITIPRSLDGRLQVSHRKGLPHVIYCRLWRWPDLHSHHELRAMELCEFAFNMKKDEVCVNPYHYQRVETPVLPPVLVPRHTEIPAEFPPLDDYSHSIPENTNFPAGIEPQSNIPETPPPGYLSEDGETSDHQMNHSMDAGSPNLSPNPMSPAHNNLDLQPVTYCEPAFWCSISYYELNNRVGEAFHASSTSVLVDGFTDPSNNKNRFCLGLLSNVVNRNAAVELTRRHIGRGVRLYYIGGEVFAECLSDSAIFVQSPNCNQRYGWHPATVCKIPPGCNLKIFNNQEFAALLAQSVNQGFEAVYQLTRMCTIRMSFVKGWGAEYRRQTVTSTPCWIELHLNGPLQWLDKVLTQMGSPSIRCSSV

percent of input protein bound (densitometry) [1]: 23%
percent of input protein bound (densitometry) [2]: 34%
B4: Flag-tagged Smad3 d6 (domain or fragment)
chain: MSSILPFTPPIVKRLLGWKKGEQNGQEEKWCEKAVKSLVKKLKKTGQLDELEKAITTQNVNTKCITIPRSLDGRLQVSHRKGLPHVIYCRLWRWPDLHSHHELRAMELCEFAFNMKKDEVCVNPYHYQRVETPVLPPVLVPRHTEIPAEFPPLDDYSHSIPENTNFPAGIEPQSNIPETPPPGYLSEDGETSDHQMNHSMDAGSPNLSPNPMSPAHNNLDLQPVTYCEPAFWCSISYYELNQRVGETFHASQPSMTVDGFTDPSNSERFCLGLLSNVNRNAAVELTRRHIGRGVRLYYIGGEVFAECLSDSAIFVQSPNCNQRYGWHPA
